How the values were obtained:
[1] = target: the molecule itself; assay: Western blot of periplasmic fraction, self-association
[2] = target: the molecule itself; assay: Western blot of periplasmic fraction (self-association)
[3] = target: the molecule itself; assay: self-association of familial mutation variants

B1: Aβ-IgNAR-G6 (VNAR)
VNAR: AWVDQTPRTATKETGESLTINCVLRDASFELKDTGWYRTKLGSTNEQSISIGGRYVETVNKGSKSFSLRISDLRVEDSGTYKCQAFYGGGLVFFAEDVGSNKGAIIGLMVGGVVIAGGGGEKGAGTALTVKA
notes: No crystals obtained; also called 37Q-6; glycine-6 version
[1]
  binding result: binds

B2: IgNAR single variable domain antibody 12Y-2 (VNAR)
VNAR: AWVDQTPRTATKETGESLTINCVLRDASFELKDTGWYRTKLGSTNEQSISIGGRYVETVNKGSKSFSLRISDLRVEDSGTYKCQAFYSLPLGDYNYSLLFRGEKGAGTALTVKA
notes: Scaffold without Aβ insert, used as the monomeric control; also called IgNAR wt; wild type IgNAR
[2]
  binding result: no binding

B3: Aβ-IgNAR-G3 (VNAR)
VNAR: AWVDQTPRTATKETGESLTINCVLRDASFELKDTGWYRTKLGSTNEQSISIGGRYVETVNKGSKSFSLRISDLRVEDSGTYKCQAFYGLVFFAEDVGSNKGAIIGLMVGGVVIAGGGEKGAGTALTVKA
notes: No crystals obtained; also called 37A-1; glycine-3 version
[1]
  binding result: binds

B4: Aβ-IgNAR 37F-2 (Asp23Asn) (VNAR)
VNAR: AWVDQTPRTATKETGESLTINCVLRDASFELKDTGWYRTKLGSTNEQSISIGGRYVETVNKGSKSFSLRISDLRVEDSGTYKCQAFYVFFAENVGSNKGAIIGLMVGGVVIGGEKGAGTALTVKA
notes: also called familial mutant Asp23Asn
[3]
  binding result: binds

B5: Aβ-IgNAR 37L-2 (Ala21Gly) (VNAR)
VNAR: AWVDQTPRTATKETGESLTINCVLRDASFELKDTGWYRTKLGSTNEQSISIGGRYVETVNKGSKSFSLRISDLRVEDSGTYKCQAFYVFFGEDVGSNKGAIIGLMVGGVVIGGEKGAGTALTVKA
notes: also called familial mutant Ala21Gly
[3]
  binding result: binds

B6: Aβ-IgNAR 37K-1 (Glu22Gln) (VNAR)
VNAR: AWVDQTPRTATKETGESLTINCVLRDASFELKDTGWYRTKLGSTNEQSISIGGRYVETVNKGSKSFSLRISDLRVEDSGTYKCQAFYVFFAQDVGSNKGAIIGLMVGGVVIGGEKGAGTALTVKA
notes: also called familial mutant Glu22Gln
[3]
  binding result: binds

B7: Aβ-IgNAR 37R-1 (ΔGlu22) (VNAR)
VNAR: AWVDQTPRTATKETGESLTINCVLRDASFELKDTGWYRTKLGSTNEQSISIGGRYVETVNKGSKSFSLRISDLRVEDSGTYKCQAFYVFFADVGSNKGAIIGLMVGGVVIGGEKGAGTALTVKA
notes: also called familial mutant ΔGlu22
[3]
  binding result: binds

From patent US20110269938A1 (COMMONWEALTH SCIENTIFIC AND INDUSTRIAL RESEARCH ORGANISATION, published 2011)
